*1 amine or outer side, *2 acyl side, *3 side chain or, on linkers, in order; H or OH if unused. Bridges are numbered along the chain shown (N, C = ends). [ ]: non-standard residue; d: D form. The star is where a group is joined. ‑S‑CH2‑C(:Z)‑CH2‑S‑ = thioether linker between two Cys sulfurs, S-CH2-C(=Z)-CH2-S, where Z is an oxime formed with (S)-1-(aminooxy)-19-carboxy-2,7,16,21-tetraoxo-9,12-dioxa-3,6,15,20-tetraazaoctatriacontan-38-oic acid (a fatty acid derivative, O=C(O)CCCCCCCCCCCCCCCCC(=O)N[C@@H](CCC(=O)NCCOCCOCC(=O)NCCNC(=O)CON=C(C[*:1])C[*:2])C(=O)O; Myristoyl = CCCCCCCCCCCCCC(=O)*; pGlu = O=C1CC[C@@H](C(=O)O)N1; d(hCys) = N[C@H](CCS)C(=O)O; hCys = N[C@@H](CCS)C(=O)O; Nle = CCCC[C@H](N)C(=O)O; AEEA = NCCOCCOCC(=O)O
T1: human APJ receptor (hAPJ) (human, UniProt P35414 1-380)
T1 sequence (looked up): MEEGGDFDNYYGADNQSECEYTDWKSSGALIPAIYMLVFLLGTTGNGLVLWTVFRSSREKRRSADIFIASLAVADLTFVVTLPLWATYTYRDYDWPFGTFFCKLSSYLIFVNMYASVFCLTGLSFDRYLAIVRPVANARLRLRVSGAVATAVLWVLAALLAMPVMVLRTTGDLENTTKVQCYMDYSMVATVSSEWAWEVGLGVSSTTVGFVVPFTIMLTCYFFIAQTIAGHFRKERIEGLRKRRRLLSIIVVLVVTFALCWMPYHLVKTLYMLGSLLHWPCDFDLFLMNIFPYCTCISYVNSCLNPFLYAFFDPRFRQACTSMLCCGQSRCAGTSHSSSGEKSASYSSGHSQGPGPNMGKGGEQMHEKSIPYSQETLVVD

B1: Example 63: pE-R-P-R-L-C-H-K-G-P-Nle-C-NH2 (peptide)
peptide: [pGlu]RPRLCHKGP[Nle]C-NH2
modifications: disulfide 6-12
SMILES: CCCC[C@@H]1NC(=O)[C@@H]2CCCN2C(=O)CNC(=O)[C@H](CCCCN)NC(=O)[C@H](Cc2c[nH]cn2)NC(=O)[C@@H](NC(=O)[C@H](CC(C)C)NC(=O)[C@H](CCCNC(=N)N)NC(=O)[C@@H]2CCCN2C(=O)[C@H](CCCNC(=N)N)NC(=O)[C@@H]2CCC(=O)N2)CSSC[C@@H](C(N)=O)NC1=O
B2: Example 65: pE-R-P-R-L-C-H-K-G-P-Nle-C-F-OH with a monosulfide linkage between the 2 cysteines at position 6 and 12 (peptide)
peptide: [pGlu]RPRLCHKGP[Nle]CF-OH
modifications: bridge 6-12; not fully specified (bridges); printed as pE-R-P-R-L-C-H-K-G-P-Nle-C-F-OH
B3: Example 57: pE-R-P-R-L-c-H-K-G-P-Nle-c-F-OH (peptide)
peptide: [pGlu]RPRL[dC]HKGP[Nle][dC]F-OH
modifications: disulfide 6-12
SMILES: CCCC[C@@H]1NC(=O)[C@@H]2CCCN2C(=O)CNC(=O)[C@H](CCCCN)NC(=O)[C@H](Cc2c[nH]cn2)NC(=O)[C@H](NC(=O)[C@H](CC(C)C)NC(=O)[C@H](CCCNC(=N)N)NC(=O)[C@@H]2CCCN2C(=O)[C@H](CCCNC(=N)N)NC(=O)[C@@H]2CCC(=O)N2)CSSC[C@H](C(=O)N[C@@H](Cc2ccccc2)C(=O)O)NC1=O
B4: Example 54: pE-R-P-R-L-C-H-K-G-P-Nle-(D-hC)-F-OH (peptide)
peptide: [pGlu]RPRLCHKGP[Nle][d(hCys)]F-OH
modifications: disulfide 6-12
SMILES: CCCC[C@@H]1NC(=O)[C@@H]2CCCN2C(=O)CNC(=O)[C@H](CCCCN)NC(=O)[C@H](Cc2c[nH]cn2)NC(=O)[C@@H](NC(=O)[C@H](CC(C)C)NC(=O)[C@H](CCCNC(=N)N)NC(=O)[C@@H]2CCCN2C(=O)[C@H](CCCNC(=N)N)NC(=O)[C@@H]2CCC(=O)N2)CSSCC[C@H](C(=O)N[C@@H](Cc2ccccc2)C(=O)O)NC1=O
B5: Example 59: Myristoyl-O2Oc-O2Oc-O2Oc-Q-R-P-R-L-C-H-K-G-P-Nle-C-f-OH (peptide)
peptide: Myristoyl-[AEEA][AEEA][AEEA]QRPRLCHKGP[Nle]C[dF]-OH
modifications: disulfide 9-15
SMILES: CCCCCCCCCCCCCC(=O)NCCOCCOCC(=O)NCCOCCOCC(=O)NCCOCCOCC(=O)N[C@@H](CCC(N)=O)C(=O)N[C@@H](CCCNC(=N)N)C(=O)N1CCC[C@H]1C(=O)N[C@@H](CCCNC(=N)N)C(=O)N[C@@H](CC(C)C)C(=O)N[C@H]1CSSC[C@@H](C(=O)N[C@H](Cc2ccccc2)C(=O)O)NC(=O)[C@H](CCCC)NC(=O)[C@@H]2CCCN2C(=O)CNC(=O)[C@H](CCCCN)NC(=O)[C@H](Cc2c[nH]cn2)NC1=O
B6: Example 61: pE-R-P-R-L-C-H-K(Myristoyl)-G-P-Nle-C-F-OH (peptide)
peptide: [pGlu]RPRLCHK(Myristoyl)GP[Nle]CF-OH
modifications: disulfide 6-12
SMILES: CCCCCCCCCCCCCC(=O)NCCCC[C@@H]1NC(=O)[C@H](Cc2c[nH]cn2)NC(=O)[C@@H](NC(=O)[C@H](CC(C)C)NC(=O)[C@H](CCCNC(=N)N)NC(=O)[C@@H]2CCCN2C(=O)[C@H](CCCNC(=N)N)NC(=O)[C@@H]2CCC(=O)N2)CSSC[C@@H](C(=O)N[C@@H](Cc2ccccc2)C(=O)O)NC(=O)[C@H](CCCC)NC(=O)[C@@H]2CCCN2C(=O)CNC1=O
B7: Example 6: pE-R-P-R-L-K-F-K-G-P-Nle-f (peptide)
peptide: [pGlu]RPRLKFKGP[Nle][dF]
modifications: lactam 6-C
SMILES: CCCC[C@@H]1NC(=O)[C@@H]2CCCN2C(=O)CNC(=O)[C@H](CCCCN)NC(=O)[C@H](Cc2ccccc2)NC(=O)[C@@H](NC(=O)[C@H](CC(C)C)NC(=O)[C@H](CCCNC(=N)N)NC(=O)[C@@H]2CCCN2C(=O)[C@H](CCCNC(=N)N)NC(=O)[C@@H]2CCC(=O)N2)CCCCNC(=O)[C@@H](Cc2ccccc2)NC1=O
B8: Example 64: pE-R-P-R-L-C-H-K-G-P-Nle-C-F-OH with a -S-CH2-C(O)CH2-S- linkage between the cysteines at position 6 and 12 (peptide)
peptide: [pGlu]RPRLCHKGP[Nle]CF-OH
modifications: linker 6-12 via ‑S‑CH2‑C(O)CH2‑S‑
B9: Example 58: Myristoyl-O2Oc-O2Oc-Q-R-P-R-L-C-H-K-G-P-Nle-C-f-OH (peptide)
peptide: Myristoyl-[AEEA][AEEA]QRPRLCHKGP[Nle]C[dF]-OH
modifications: disulfide 8-14
SMILES: CCCCCCCCCCCCCC(=O)NCCOCCOCC(=O)NCCOCCOCC(=O)N[C@@H](CCC(N)=O)C(=O)N[C@@H](CCCNC(=N)N)C(=O)N1CCC[C@H]1C(=O)N[C@@H](CCCNC(=N)N)C(=O)N[C@@H](CC(C)C)C(=O)N[C@H]1CSSC[C@@H](C(=O)N[C@H](Cc2ccccc2)C(=O)O)NC(=O)[C@H](CCCC)NC(=O)[C@@H]2CCCN2C(=O)CNC(=O)[C@H](CCCCN)NC(=O)[C@H](Cc2c[nH]cn2)NC1=O
B10: Example 60: Myristoyl-O2Oc-O2Oc-O2Oc-O2Oc-Q-R-P-R-L-C-H-K-G-P-Nle-C-f-OH (peptide)
peptide: Myristoyl-[AEEA][AEEA][AEEA][AEEA]QRPRLCHKGP[Nle]C[dF]-OH
modifications: disulfide 10-16
SMILES: CCCCCCCCCCCCCC(=O)NCCOCCOCC(=O)NCCOCCOCC(=O)NCCOCCOCC(=O)NCCOCCOCC(=O)N[C@@H](CCC(N)=O)C(=O)N[C@@H](CCCNC(=N)N)C(=O)N1CCC[C@H]1C(=O)N[C@@H](CCCNC(=N)N)C(=O)N[C@@H](CC(C)C)C(=O)N[C@H]1CSSC[C@@H](C(=O)N[C@H](Cc2ccccc2)C(=O)O)NC(=O)[C@H](CCCC)NC(=O)[C@@H]2CCCN2C(=O)CNC(=O)[C@H](CCCCN)NC(=O)[C@H](Cc2c[nH]cn2)NC1=O
B11: Example 7: Q-R-P-R-L-C-F-K-G-P-Nle-C-F-G-G (peptide)
peptide: cyclo(QRPRLCFKGP[Nle]CFGG)
modifications: disulfide 6-12
B12: Example 52: pE-R-P-R-L-hC-H-K-G-P-Nle-hC-F-OH (peptide)
peptide: [pGlu]RPRL[hCys]HKGP[Nle][hCys]F-OH
modifications: disulfide 6-12
SMILES: CCCC[C@@H]1NC(=O)[C@@H]2CCCN2C(=O)CNC(=O)[C@H](CCCCN)NC(=O)[C@H](Cc2c[nH]cn2)NC(=O)[C@@H](NC(=O)[C@H](CC(C)C)NC(=O)[C@H](CCCNC(=N)N)NC(=O)[C@@H]2CCCN2C(=O)[C@H](CCCNC(=N)N)NC(=O)[C@@H]2CCC(=O)N2)CCSSCC[C@@H](C(=O)N[C@@H](Cc2ccccc2)C(=O)O)NC1=O
B13: Example 62: pE-R-P-R-L-C-H-K-G-P-Nle-C-F-NH2 (peptide)
peptide: [pGlu]RPRLCHKGP[Nle]CF-NH2
modifications: disulfide 6-12
SMILES: CCCC[C@@H]1NC(=O)[C@@H]2CCCN2C(=O)CNC(=O)[C@H](CCCCN)NC(=O)[C@H](Cc2c[nH]cn2)NC(=O)[C@@H](NC(=O)[C@H](CC(C)C)NC(=O)[C@H](CCCNC(=N)N)NC(=O)[C@@H]2CCCN2C(=O)[C@H](CCCNC(=N)N)NC(=O)[C@@H]2CCC(=O)N2)CSSC[C@@H](C(=O)N[C@@H](Cc2ccccc2)C(N)=O)NC1=O
B14: Example 55: pE-R-P-R-L-(D-hC)-H-K-G-P-Nle-(D-hC)-F-OH (peptide)
peptide: [pGlu]RPRL[d(hCys)]HKGP[Nle][d(hCys)]F-OH
modifications: disulfide 6-12
SMILES: CCCC[C@@H]1NC(=O)[C@@H]2CCCN2C(=O)CNC(=O)[C@H](CCCCN)NC(=O)[C@H](Cc2c[nH]cn2)NC(=O)[C@H](NC(=O)[C@H](CC(C)C)NC(=O)[C@H](CCCNC(=N)N)NC(=O)[C@@H]2CCCN2C(=O)[C@H](CCCNC(=N)N)NC(=O)[C@@H]2CCC(=O)N2)CCSSCC[C@H](C(=O)N[C@@H](Cc2ccccc2)C(=O)O)NC1=O
B15: Example 53: pE-R-P-R-L-c-H-K-G-P-Nle-C-F-OH (peptide)
peptide: [pGlu]RPRL[dC]HKGP[Nle]CF-OH
modifications: disulfide 6-12
SMILES: CCCC[C@@H]1NC(=O)[C@@H]2CCCN2C(=O)CNC(=O)[C@H](CCCCN)NC(=O)[C@H](Cc2c[nH]cn2)NC(=O)[C@H](NC(=O)[C@H](CC(C)C)NC(=O)[C@H](CCCNC(=N)N)NC(=O)[C@@H]2CCCN2C(=O)[C@H](CCCNC(=N)N)NC(=O)[C@@H]2CCC(=O)N2)CSSC[C@@H](C(=O)N[C@@H](Cc2ccccc2)C(=O)O)NC1=O
B16: Example 66: pE-R-P-R-L-C-H-K-G-P-Nle-C-F-OH with a -S-CH2-C(=Z)-CH2-S- linkage between the 2 cysteines at position 6 and 12 (peptide)
peptide: [pGlu]RPRLCHKGP[Nle]CF-OH
modifications: linker 6-12 via ‑S‑CH2‑C(:Z)‑CH2‑S‑; also: Z = oxime with (S)-1-(aminooxy)-19-carboxy-2,7,16,21-tetraoxo-9,12-dioxa-3,6,15,20-tetraazaoctatriacontan-38-oic acid on the linker ketone
B17: Example 51: pE-R-P-R-L-C-H-K-G-P-Nle-hC-F-OH (peptide)
peptide: [pGlu]RPRLCHKGP[Nle][hCys]F-OH
modifications: disulfide 6-12
SMILES: CCCC[C@@H]1NC(=O)[C@@H]2CCCN2C(=O)CNC(=O)[C@H](CCCCN)NC(=O)[C@H](Cc2c[nH]cn2)NC(=O)[C@@H](NC(=O)[C@H](CC(C)C)NC(=O)[C@H](CCCNC(=N)N)NC(=O)[C@@H]2CCCN2C(=O)[C@H](CCCNC(=N)N)NC(=O)[C@@H]2CCC(=O)N2)CSSCC[C@@H](C(=O)N[C@@H](Cc2ccccc2)C(=O)O)NC1=O
B18: Example 56: pE-R-P-R-L-C-H-K-G-P-Nle-c-F-OH (peptide)
peptide: [pGlu]RPRLCHKGP[Nle][dC]F-OH
modifications: disulfide 6-12
SMILES: CCCC[C@@H]1NC(=O)[C@@H]2CCCN2C(=O)CNC(=O)[C@H](CCCCN)NC(=O)[C@H](Cc2c[nH]cn2)NC(=O)[C@@H](NC(=O)[C@H](CC(C)C)NC(=O)[C@H](CCCNC(=N)N)NC(=O)[C@@H]2CCCN2C(=O)[C@H](CCCNC(=N)N)NC(=O)[C@@H]2CCC(=O)N2)CSSC[C@H](C(=O)N[C@@H](Cc2ccccc2)C(=O)O)NC1=O
B19: Example 8: pE-R-P-R-L-C-H-K-G-P-Nle-C-F-OH (peptide)
peptide: [pGlu]RPRLCHKGP[Nle]CF-OH
modifications: disulfide 6-12

Target: T1, human APJ receptor (hAPJ)
Assay: cell-based or functional assay

Binder	hAPJ Ca2+ Flux EC50
B1	3.18 nM
B2	1.1 nM
B3	2.01 nM
B4	6.7 nM
B5	10 nM
B6	89.2 nM
B7	22 nM
B8	6.3 nM
B9	13.1 nM
B10	8.15 nM
B11	90.8 nM
B12	53.9 nM
B13	3.32 nM
B14	8.16 nM
B15	1.07 nM
B16	589 nM
B17	1.09 nM
B18	1.12 nM
B19	1.04 nM
